{
  "source": "patent US20040138118A1",
  "target": "myostatin pro peptide (wild type) (human) (UniProt O14793)",
  "sequence (O14793 24-266)": "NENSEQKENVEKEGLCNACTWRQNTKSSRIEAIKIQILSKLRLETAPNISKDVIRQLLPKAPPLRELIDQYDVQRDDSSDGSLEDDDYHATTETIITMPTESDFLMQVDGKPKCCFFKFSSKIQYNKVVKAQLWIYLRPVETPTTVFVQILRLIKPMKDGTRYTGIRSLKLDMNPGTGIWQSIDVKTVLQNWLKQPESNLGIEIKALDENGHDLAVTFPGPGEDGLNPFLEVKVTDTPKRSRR",
  "assay": "cell-based or functional assay",
  "data": [
    {"substance": "mammalian Tolloid-like-1 (mTLL-1) (from UniProt O43897 148-1013) (enzyme)", "values": [
      {"measurement": "fraction of the proteolytically-cleaved myostatin complex active in the reporter assay", "result": "> 50", "unit": "%"}
    ]}
  ]
}
